Test results taken from patent publication US7148338B2, “Nucleic acids encoding dipeptidyl peptidases” (The University of Sydney, priority 1999, dated 2006).

B1: DPPIV: dipeptidyl peptidase IV, comparator enzyme (protein)
chain: MKTPWKVLLGLLGAAALVTIITVPVVLLNKGTDDATADSRKTYTLTDYLKNTYRLKLYSLRWISDHEYLYKQENNILVFNAEYGNSSVFLENSTFDEFGHSINDYSISPDGQFILLEYNYVKQWRHSYTASYDIYDLNKRQLITEERIPNNTQWVTWSPVGHKLAYVWNNDIYVKIEPNLPSYRITWTGKEDIIYNGITDWVYEEEVFSAYSALWWSPNGTFLAYAQFNDTEVPLIEYSFYSDESLQYPKTVRVPYPKAGAVNPTVKFFVVNTDSLSSVTNATSIQITAPASMLIGDHYLCDVTWATQERISLQWLRRIQNYSVMDICDYDESSGRWNCLVARQHIEMSTTGWVGRFRPSEPHFTLDGNSFYKIISNEEGYRHICYFQIDKKDCTFITKGTWEVIGIEALTSDYLYYISNEYKGMPGGRNLYKIQLSDYTKVTCLSCELNPERCQYYSVSFSKEAKYYQLRCSGPGLPLYTLHSSVNDKGLRVLEDNSALDKMLQNVQMPSKKLDFIILNETKFWYQMILPPHFDKSKKYPLLLDVYAGPCSQKADTVFRLNWATYLASTENIIVASFDGRGSGYQGDKIMHAINRRLGTFEVEDQIEAARQFSKMGFVDNKRIAIWGWSYGGYVTSMVLGSGSGVFKCGIAVAPVSRWEYYDSVYTERYMGLPTPEDNLDHYRNSTVMSRAENFKQVEYLLIHGTADDNVHFQQSAQISKALVDVGVDFQAMWYTDEDHGIASSTAHQHIYTHMSHFIKQCFSLP
modifications: left off: small tags and cut ends
notes: dipeptidyl peptidase IV, comparator enzyme
B2: DPP8: novel human dipeptidyl peptidase, amino acid sequence SEQ ID NO:1, 882 amino acids (protein, listed as Homo Sapiens)
chain: MAAAMETEQLGVEIFETADCEENIESQDRPKLEPFYVERYSWSQLKKLLADTRKYHGYMMAKAPHDFMFVKRNDPDGPHSDRIYYLAMSGENRENTLFYSEIPKTINRAAVLMLSWKPLLDLFQATLDYGMYSREEELLRERKRIGTVGIASYDYHQGSGTFLFQAGSGIYHVKDGGPQGFTQQPLRPNLVETSCPNIRMDPKLCPADPDWIAFIHSNDIWISNIVTREERRLTYVHNELANMEEDARSAGVATFVLQEEFDRYSGYWWCPKAETTPSGGKILRILYEENDESEVEIIHVTSPMLETRRADSFRYPKTGTANPKVTFKMSEIMIDAEGRIIDVIDKELIQPFEILFEGVEYIARAGWTPEGKYAWSILLDRSQTRLQIVLISPELFIPVEDDVMERQRLIESVPDSVTPLIIYEETTDIWINIHDIFHVFPQSHEEEIEFIFASECKTGFRHLYKITSILKESKYKRSSGGLPAPSDFKCPIKEEIAITSGEWEVLGRHGSNIQVDEVRRLVYFEGTKDSPLEHHLYVVSYVNPGEVTRLTDRGYSHSCCISQHCDFFISKYSNQKNPHCVSLYKLSSPEDDPTCKTKEFWATILDSAGPLPDYTPPEIFSFESTTGFTLYGMLYKPHDLQPGKKYPTVLFIYGGPQVQLVNNRFKGVKYFRLNTLASLGYVVVVIDNRGSCHRGLKFEGAFKYKMGQIEIDDQVEGLQYLASRYDFIDLDRVGIHGWSYGGYLSLMALMQRSDIFRVAIAGAPVTLWIFYDTGYTERYMGHPDQNEQGYYLGSVAMQAEKFPSEPNRLLLLHGFLDENVHFAHTSILLSFLVRAGKPYDLQIYPQERHSIRVPESGEHYELHLLHYLQENLGSRIAALKVI

Key:
[1] = target: DPPIV (Homo sapiens, UniProt P27487); conditions: references [43,44]; cited from earlier work
[2] = target: T1, DPP8 (Homo sapiens, UniProt Q6V1X1); assay: pH-dependence of DPP8 enzyme activity; format: biochemical
T1 construct: the full length DPP8 cDNA of 3.1 kb was cloned into the Xba I site of pcDNA3.1A/V5/His expression vector; expressed in transfected cells; host or cells: COS-7 (monkey kidney fibroblast) cells; clarified sonicated cell extract
Procedure: FIG. 7. DPP8 enzyme activity. (A) pH-dependence of DPP8 enzyme activity. (B) DPP8 and DPPIV enzyme kinetics. Means +/− SD of absorbance change per minute, multiplied by 1000 are shown. Curve fitting assumed Michaelis-Menten kinetics.
Enzyme assays were performed as described previously. Either clarified cell extract from 1×10^4 sonicated COS-7 cells or purified protein derived from 1×10^5 cells was incubated with substrate in 70 μL phosphate buffer, pH 7.4, for 30 min at 37° C., except where otherwise indicated. The specific DPPIV substrates, Gly-Pro-toluenesulfonate, H-Gly-Pro-p-nitroanilide (NA)/HCl (Sigma, St Louis, Mo., USA) and Gly-Pro-7-amino-4-trifluromethylcoumarin (Calbiochem, San Diego, Calif., USA) were tested. Other substrates tested were H-Ala-Pro-pNA/HCl, H-Arg-Pro-pNA acetate salt, H-Lys-Ala-pNA.2HCl, H-Asp-Pro-pNA, H-Ala-Ala-pNA/HCl, H-Ala-Ala-Pro-pNA/HCl, H-Ala-Ala-Phe-pNA, succinyl-Ala-Pro-pNA, H-Ala-Phe-Pro-pNA and Z-Ala-Pro-p-NA from Bachem (Switzerland). H-Ala-Pro-4-methoxyβNA/HCl, Z-Lys-Pro-4-methoxyβNAformate salt, H-Lys-Pro-4-methoxyβNA/HCl, Z-Ala-Pro-4-methoxyβNA, H-Gly-Pro-βNA and H-His-Ser-4-methoxyβNAacetate salt (Bachem) were tested for their ability to stain unfixed transfected cells. All inhibitors were (see Table 2) incubated with each purified enzyme in phosphate buffer, pH 7.4, for 15 min before the addition of substrate. […]

Row | Molecule | pH optimum of enzyme activity [1] | pH optimum of enzyme activity [2]
1 | B1 | 7.8 | 
2 | B2 |  | 7.4
